Measurements: publication doi:10.1101/2021.04.04.438383 (bioRxiv, 2021)

Target: the molecule itself
Assay: dynamic light scattering

Protein	binding result
recombinant Arc S67D, GST tag cleaved (natural protein) MELDHMTTGGLHAYPAPRGGPAAKPNVILQIGKCRAEMLEHVRRTHRHLLTEVSKQVERELKGLHRDVGKLENNLDGYVPTGDSQRWKKSIKACLCRCQETIANLERWVKREMHVWREVFYRLERWADRLESMGGKYPVGSEPARHTVSVGVGGPEPYCQEADGYDYTVSPYAITPPPAAGELPEQESVEAQQYQSWGPGEDGQPSPGVDTQIFEDPREFLSHLEEYLRQVGGSEEYWLSQIQNHMNGPAKKWWEFKQGSVKNWVEFKKEFLQYSEGTLSREAIQRELELPQKQGEPLDQFLWRKRDLYQTLYVDAEEEEIIQYVVGTLQPKLKRFLRHPLPKTLEQLIQRGMEVQDGLEQAAEPSGTPLPTEDETEALTPALTSESVASDRTQPE	binds
recombinant Arc T278D, GST tag cleaved (natural protein) MELDHMTTGGLHAYPAPRGGPAAKPNVILQIGKCRAEMLEHVRRTHRHLLTEVSKQVERELKGLHRSVGKLENNLDGYVPTGDSQRWKKSIKACLCRCQETIANLERWVKREMHVWREVFYRLERWADRLESMGGKYPVGSEPARHTVSVGVGGPEPYCQEADGYDYTVSPYAITPPPAAGELPEQESVEAQQYQSWGPGEDGQPSPGVDTQIFEDPREFLSHLEEYLRQVGGSEEYWLSQIQNHMNGPAKKWWEFKQGSVKNWVEFKKEFLQYSEGDLSREAIQRELELPQKQGEPLDQFLWRKRDLYQTLYVDAEEEEIIQYVVGTLQPKLKRFLRHPLPKTLEQLIQRGMEVQDGLEQAAEPSGTPLPTEDETEALTPALTSESVASDRTQPE	binds
